Publication PMC6658011

Biological target: full-length AMC011 Env trimer (HIV-1)
Test: negative-stain EM

PGT145 Fab was tested, and the stoichiometry N (Fab per trimer) was 1.
PGT151 Fab showed a stoichiometry N (Fab per trimer) of 2.
